The results in this text go back to patent publication US20100098708A1 (AstraZeneca / MedImmune, published 2010).

Values joined by “and” are separate entries in the source; they are usually repeats but may differ in a detail not shown here. Equal entries are not always repeated.

B1: P11d4 Fab (Fab, V domains shown)
VH: QVTLRESGPALVKPTQTLTLTCTFSGFSLSTPGMSVGWIRQPPGKALEWLADIWWDGKKHYNPSLKDRLTISKDTSKNQVVLKVTNMDPADTATYYCARDMIFNWYFDVWGQGTTVTVSS
VL: DIQMTQSPSTLSASVGDRVTITCSPSSRVGYMHWYQQKPGKAPKLLIYDTMRLASGVPSRFSGSGSGTEFTLTISSLQPDDFATYYCFQGSGYPFTFGGGTKVEIK
notes: Fab
B2: A13a11 Fab (Fab, V domains shown)
VH: QVTLRESGPALVKPTQTLTLTCTFSGFSLSTAGMSVGWIRQPPGKALEWLADIWWDDKKHYNPSLKDRLTISKDTSKNQVVLKVTNMDPADTATYYCARDMIFNWYFDVWGQGTTVTVSS
VL: DIQMTQSPSTLSASVGDRVTITCSPSSRVGYMHWYQQKPGKAPKLLIYDTYRHSSGVPSRFSGSGSGTEFTLTISSLQPDDFATYYCFQGSGYPFTFGGGTKVEIK
notes: Fab
B3: A13c4 Fab (Fab, V domains shown)
VH: QVTLRESGPALVKPTQTLTLTCTFSGFSLSTAGMSVGWIRQPPGKALEWLADIWWDGKKSYNPSLKDRLTISKDTSKNQVVLKVTNMDPADTATYYCARDMIFNFYFDVWGQGTTVTVSS
VL: DIQMTQSPSTLSASVGDRVTITCSLSSRVGYMHWYQQKPGKAPKLLIYDTMYQSSGVPSRFSGSGSGTEFTLTISSLQPDDFATYYCFQGSGYPFTFGGGTKVEIK
notes: Fab
B4: A1e9 Fab (Fab, V domains shown)
VH: QVTLRESGPALVKPTQTLTLTCTFSGFSLSTAGMSVGWIRQPPGKALEWLADIWWDGKKHYNPSLKDRLTISKDTSKNQVVLKVTNMDPADTATYYCARDMIFNWYFDVWGQGTTVTVSS
VL: DIQMTQSPSTLSASVGDRVTITCSLSSRVGYMHWYQQKPGKAPKLLIYDTFKLSSGVPSRFSGSGSGTEFTLTISSLQPDDFATYYCFQGSGYPFTFGGGTKVEIK
notes: Fab; also called Ale9
B5: A12a6 Fab (Fab, V domains shown)
VH: QVTLRESGPALVKPTQTLTLTCTFSGFSLSTAGMSVGWIRQPPGKALEWLADIWWDGKKDYNPSLKDRLTISKDTSKNQVVLKVTNMDPADTATYYCARDMIFNFYFDVWGQGTTVTVSS
VL: DIQMTQSPSTLSASVGDRVTITCSASSRVGYMHWYQQKPGKAPKLLIYDTFKLSSGVPSRFSGSGSGTEFTLTISSLQPDDFATYYCFQGSGYPFTFGGGTKVEIK
notes: Fab
B6: P12f2 Fab (Fab, V domains shown)
VH: QVTLRESGPALVKPTQTLTLTCTFSGFSLSTPGMSVGWIRQPPGKALEWLADIWWDDKKHYNPSLKDRLTISKDTSKNQVVLKVTNMDPADTATYYCARDMIFNFYFDVWGQGTTVTVSS
VL: DIQMTQSPSTLSASVGDRVTITCSLSSRVGYMHWYQQKPGKAPKLLIYDTFYLSSGVPSRFSGSGSGTEFTLTISSLQPDDFATYYCFQGSGYPFTFGGGTKVEIK
notes: Fab
B7: AFFF(1) IgG (antibody, V domains shown)
VH: QVTLRESGPALVKPTQTLTLTCTFSGFSLSTAGMSVGWIRQPPGKALEWLADIWWDDKKDYNPSLKSRLTISKDTSKNQVVLKVTNMDPADTATYYCARSMITNFYFDVWGQGTTVTVSS
VL: DIQMTQSPSTLSASVGDRVTITCSASSSVGYMHWYQQKPGKAPKLLIYDTFKLASGVPSRFSGSGSGTEFTLTISSLQPDDFATYYCFQGSFYPFTFGGGTKVEIKR
notes: IgG1/kappa
B8: 1X-493L1FR Fab (Fab, V domains shown)
VH: QVTLRESGPALVKPTQTLTLTCTFSGFSLSTSGMSVGWIRQPPGKALEWLADIWWDDKKDYNPSLKSRLTISKDTSKNQVVLKVTNMDPADTATYYCARSMITNWYFDVWGQGTTVTVSS
VL: DIQMTQSPSTLSASVGDRVTITCSASSSVGYMHWYQQKPGKAPKLLIYDTSKLASGVPSRFSGSGSGTEFTLTISSLQPDDFATYYCFQGSGYPFTFGGGTKVEIK
notes: also called IX-493L1FR
B9: AFFF(1) Fab (Fab, V domains shown)
VH: QVTLRESGPALVKPTQTLTLTCTFSGFSLSTAGMSVGWIRQPPGKALEWLADIWWDDKKDYNPSLKSRLTISKDTSKNQVVLKVTNMDPADTATYYCARSMITNFYFDVWGQGTTVTVSS
VL: DIQMTQSPSTLSASVGDRVTITCSASSSVGYMHWYQQKPGKAPKLLIYDTFKLASGVPSRFSGSGSGTEFTLTISSLQPDDFATYYCFQGSFYPFTFGGGTKVEIK
notes: Fab; also called AHH(1)
B10: A4B4 IgG (antibody, V domains shown)
VH: QVTLRESGPALVKPTQTLTLTCTFSGFSLSTAGMSVGWIRQPPGKALEWLADIWWDDKKHYNPSLKDRLTISKDTSKNQVVLKVTNMDPADTATYYCARDMIFNFYFDVWGQGTTVTVSS
VL: DIQMTQSPSTLSASVGDRVTITCSASSRVGYMHWYQQKPGKAPKLLIYDTFFLDSGVPSRFSGSGSGTEFTLTISSLQPDDFATYYCFQGSGYPFTFGGGTKVEIKR
notes: IgG1/kappa

Sequence of RSV F protein (immobilised antigen of Example 6.1) (respiratory syncytial virus) (P03420 26-524): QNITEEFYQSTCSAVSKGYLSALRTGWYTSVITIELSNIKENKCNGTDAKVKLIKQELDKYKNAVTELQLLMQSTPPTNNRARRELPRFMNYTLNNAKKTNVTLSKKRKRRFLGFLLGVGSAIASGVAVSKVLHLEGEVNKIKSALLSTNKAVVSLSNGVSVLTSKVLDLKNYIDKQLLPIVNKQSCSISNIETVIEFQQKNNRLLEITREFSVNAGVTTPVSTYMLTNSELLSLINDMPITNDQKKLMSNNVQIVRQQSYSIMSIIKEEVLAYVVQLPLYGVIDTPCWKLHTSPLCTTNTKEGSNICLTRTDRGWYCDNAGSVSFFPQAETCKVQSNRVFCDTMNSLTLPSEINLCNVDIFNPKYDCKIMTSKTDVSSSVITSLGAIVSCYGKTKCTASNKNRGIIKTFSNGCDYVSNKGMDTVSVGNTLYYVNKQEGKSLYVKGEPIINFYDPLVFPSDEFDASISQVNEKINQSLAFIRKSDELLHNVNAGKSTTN

The first assay addresses RSV F protein (immobilised antigen of Example 6.1) (respiratory syncytial virus). Put plainly: BIAcore.
For the molecule B1, the koff was determined as 0.000717 s⁻¹; the kon was 570000 M⁻¹ s⁻¹ and 572000 M⁻¹ s⁻¹.

For B2, the koff amounted to 0.00025 s⁻¹ and the kon amounted to 735000 M⁻¹ s⁻¹.

Take B3: the koff worked out at 0.00028 s⁻¹; the kon was 781000 M⁻¹ s⁻¹ and 735000 M⁻¹ s⁻¹.

B4 yielded a koff of 0.000453 s⁻¹ and a kon of 790000 M⁻¹ s⁻¹.

B5 displayed a koff of 0.00023 s⁻¹ and an on-rate constant (kon) of 743000 M⁻¹ s⁻¹.

On to B6, for which the koff amounted to 0.000282 s⁻¹ and the kon came to 663000 M⁻¹ s⁻¹.

As for B7, the koff was 0.000274 s⁻¹ and 0.000266 s⁻¹ and 0.000206 s⁻¹; the kon was 108000 M⁻¹ s⁻¹ and 96000 M⁻¹ s⁻¹ and 124000 M⁻¹ s⁻¹.

On to B8, for which the off-rate (koff) was 0.00065 s⁻¹ and the kon amounted to 185000 M⁻¹ s⁻¹.

With B9, the koff was 0.000245 s⁻¹ and 0.000446 s⁻¹ and 0.000268 s⁻¹; the kon is 212000 M⁻¹ s⁻¹ and 156000 M⁻¹ s⁻¹ and 186000 M⁻¹ s⁻¹.

In the next assay the target is Bac-F (respiratory syncytial virus). Put plainly: BIAcore, (1:1).
Sequence of Bac-F (respiratory syncytial virus) (P03420 26-524): as above
Take B10: the equilibrium dissociation constant (Kd) was 0.02 nM, the koff is 1.06e-05 s⁻¹, the kon was 434000 M⁻¹ s⁻¹ and the “number in parentheses after KD (ratio to palivizumab = 1)” value stood at 195 fold.

The target of a further assay is F protein of RSV Long strain on infected HEp-2 cells (respiratory syncytial virus Long strain, UniProt P12568 26-574). The assay is described as follows: cell-based or functional assay.
Sequence of F protein of RSV Long strain on infected HEp-2 cells (P12568 26-574): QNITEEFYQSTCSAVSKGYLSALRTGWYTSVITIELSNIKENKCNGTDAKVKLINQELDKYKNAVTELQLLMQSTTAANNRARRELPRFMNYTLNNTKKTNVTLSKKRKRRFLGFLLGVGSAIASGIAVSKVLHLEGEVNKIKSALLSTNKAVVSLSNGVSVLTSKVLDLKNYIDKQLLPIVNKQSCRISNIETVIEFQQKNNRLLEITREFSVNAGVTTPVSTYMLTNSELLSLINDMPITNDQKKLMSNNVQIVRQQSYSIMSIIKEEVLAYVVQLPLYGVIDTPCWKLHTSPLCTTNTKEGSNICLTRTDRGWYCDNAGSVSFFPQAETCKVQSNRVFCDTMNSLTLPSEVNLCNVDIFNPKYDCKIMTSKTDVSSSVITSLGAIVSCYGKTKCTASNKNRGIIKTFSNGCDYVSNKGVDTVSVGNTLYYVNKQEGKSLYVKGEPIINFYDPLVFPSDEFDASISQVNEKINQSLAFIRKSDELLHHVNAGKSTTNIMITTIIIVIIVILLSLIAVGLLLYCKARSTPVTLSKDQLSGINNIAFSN
Consider B1, for which the “RSV microneutralization IC50” value is 0.292 µg/ml and 5.84 nM.
